From US20160369011A1

T1: human TEM1 (endosialin/CD248) (human) (UniProt Q9HCU0)
T1 sequence (chain, biotinylated in the SPR assay of Table 6 (sites not stated)): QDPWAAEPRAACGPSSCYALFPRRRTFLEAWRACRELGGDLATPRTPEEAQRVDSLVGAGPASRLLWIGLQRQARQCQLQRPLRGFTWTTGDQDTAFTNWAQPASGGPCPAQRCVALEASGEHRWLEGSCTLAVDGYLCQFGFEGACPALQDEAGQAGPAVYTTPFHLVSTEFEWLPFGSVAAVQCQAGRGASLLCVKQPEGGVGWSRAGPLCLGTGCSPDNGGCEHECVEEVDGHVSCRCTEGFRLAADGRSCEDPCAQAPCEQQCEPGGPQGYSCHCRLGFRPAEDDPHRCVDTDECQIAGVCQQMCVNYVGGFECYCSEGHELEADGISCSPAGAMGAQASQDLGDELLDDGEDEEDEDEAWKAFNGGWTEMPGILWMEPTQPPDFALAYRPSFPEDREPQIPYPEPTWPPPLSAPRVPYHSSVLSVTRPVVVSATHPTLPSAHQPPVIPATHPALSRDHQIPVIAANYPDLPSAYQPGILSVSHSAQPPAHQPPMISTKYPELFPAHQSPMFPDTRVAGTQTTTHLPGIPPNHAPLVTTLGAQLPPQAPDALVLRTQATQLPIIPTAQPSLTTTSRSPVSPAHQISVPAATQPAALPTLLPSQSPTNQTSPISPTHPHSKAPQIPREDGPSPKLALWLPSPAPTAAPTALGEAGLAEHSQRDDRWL


Biological target: T1, human TEM1 (endosialin/CD248) (human)
Test: SPR (BIAcore), biotin-hTEM1 captured on CAP chip, antibody 0-50 nM as analyte

| Kd | koff | kon | Binder |
| --- | --- | --- | --- |
| 0.015 nM | 5.8e-05 s⁻¹ | 3.7e+06 M⁻¹ s⁻¹ | 1-55-2 (rabbit anti-hTEM1 mAb) (antibody, V domains shown) VH: QSVEESGGDLVKPEGSLTLTCTASGFSFSSSYWGCWVRQAPGKGPEWIACIYGGSSGTTYYPNWAKGRFSISKTSSTTVTLQMASLTAADTATYFCARVTNGGDWDFKLWGPGTLVTISS VL: ELVMTQTPASVEVAVGGTVTIKCQASQSINTYLAWYQQKPGQPPKLLIYRASTLASGVPSRFKGSGSGTEFTLTISDLECADAATYYCQQSVRVIDVDNTFGGGTEVVVK |
| 0.046 nM | 7.1e-05 s⁻¹ | 1.5e+06 M⁻¹ s⁻¹ | xi1-55-2 (rabbit/human chimerized 1-55-2 mAb) (antibody, human IgG1, kappa, V domains shown) VH: QSVEESGGDLVKPEGSLTLTCTASGFSFSSSYWGCWVRQAPGKGPEWIACIYGGSSGTTYYPNWAKGRFSISKTSSTTVTLQMASLTAADTATYFCARVTNGGDWDFKLWGPGTLVTISS VL: ELVMTQTPASVEVAVGGTVTIKCQASQSINTYLAWYQQKPGQPPKLLIYRASTLASGVPSRFKGSGSGTEFTLTISDLECADAATYYCQQSVRVIDVDNTFGGGTEVVVKR |
